Experimental data published in patent US10039841B2, “Gene therapy vector system and prodrug genes” (The Industry & Academic Cooperation in Chungnam National …, priority 2016, dated 2018).

System: U-87MG cells
Assay: Investigation of drug sensitivity against GCV and 5-FC (cell death of serially infected cells)
Type: cell-based
Method: The drug sensitivity against ganciclovir (GCV) and 5-fluorocytosine (5-FC) of the virus spRRVe-P1-yCD/sRRVgp-P1-TK produced in Example <3-1> was investigated.
Overall, 293T cells were co-transfected with spRRVe-P1-yCD/sRRVgp-P1-TK by using PLUS reagent (Invitrogen) and lipofectamine (Invitrogen). 2 days later, the supernatant was obtained. The U-87MG cells sub-cultured on the previous day in a 6-well plate at the density of 1.5×10^3 cells/well were added with 8 μl/ml of polybrene, followed by infection with the virus for 8 hours. 5 days after the infection (post-infection 5 d), the supernatant was obtained. The U-87MG cells sub-cultured on the previous day in a 6-well plate at the density of 1.5×10^3 cells/well were infected with the supernatant (p1). The infection was continued serially until p4 phase. The cells of each phase were treated with trypsin-EDTA to prepare single cells. The prepared single cells were distributed in a 12-well plate at the density of 1.5×10^3 cells/well. From the next day of the sub-culture, the cells were treated with […] of GCV and 1 mM 5-FC for 5 days or 8 days, followed by investigation of cell death.
The drug sensitivity of the virus produced in Example <6-2> against GCV and 5-FC was investigated by the same manner as described in Example <3-5> except that the virus produced in Example <6-2> was co-transfected.
(§1) The drug sensitivity of the virus produced in Example <7-2> against GCV and 5-FC was investigated by the same manner as described in Example <3-5> except that the virus produced in Example <7-2> was co-transfected to infect stepwise from p1 to p9 and cell death was observed after treating GCV and 5-FC for 9 or 12 days, respectively.
as §1, with “<8-2>” for “<7-2>”, “p11” for “p9”, “5” for “9”, “7 days.” for “12 days, respectively.”
as §1, with “<10-2>” for “<7-2>”, “p5” for “p9”, “6” for “9”, “8” for “12”
as §1, with “Example <11-2>” for “Example <7-2>”, “for 8” for “for 9”, “days, respetively.” for “days, respectively.”

[1] = Example 8-3, combined with sRRVgp-P2-TK, p1 to p11, treated 5 or 7 days

B1: yCD: yeast cytosine deaminase gene (SEQ. ID. NO: 16) (nucleic acid, listed as Saccharomyces cerevisiae)
DNA: ATGGTGACAGGGGGAATGGCAAGCAAGTGGGATCAGAAGGGTATGGACATTGCCTATGAGGAGGCGGCCTTAGGTTACAAAGAGGGTGGTGTTCCTATTGGCGGATGTCTTATCAATAACAAAGACGGAAGTGTTCTCGGTCGTGGTCACAACATGAGATTTCAAAAGGGATCCGCCACACTACATGGTGAGATCTCCACTTTGGAAAACTGTGGGAGATTAGAGGGCAAAGTGTACAAAGATACCACTTTGTATACGACGCTGTCTCCATGCGACATGTGTACAGGTGCCATCATCATGTATGGTATTCCACGCTGTGTTGTCGGTGAGAACGTTAATTTCAAAAGTAAGGGCGAGAAATATTTACAAACTAGAGGTCACGAGGTTGTTGTTGTTGACGATGAGA
- drug sensitivity against 5-FC (Example 3-5, 1 mM 5-FC for 5 days or 8 days, post-infection 5 d to p4): low drug sensitivity

B2: CD4: CD gene where 32 sites showing recombination were all mutated (SEQ. ID. NO: 19) (nucleic acid)
DNA: ATGGTGACAGGGGGAATGGCAAGCAAGTGGGATCAGAAGGGTATGGACATTGCCTATGAGGAGGCGGCCTTAGGTTACAAAGAGGGTGGTGTTCCTATTGGCGGATGTCTTATCAATAACAAAGACGGAAGTGTTCTCGGTCGTGGTCACAACATGAGATTTCAAAAGGGATCCGCCACACTACATGGTGAGATCTCCACTTTGGAGAACTGCGGCAGGCTGGAAGGCAAGGTGTACAAAGATACCACTCTGTACACCACCCTGTCTCCATGCGACATGTGTACAGGTGCCATCATCATGTATGGTATTCCACGCTGTGTTGTCGGTGAGAACGTTAATTTCAAAAGTAAGGGCGAGAAATACTTGCAAACCAGGGGCCACGAGGTGGTGGTTGTTGACGATGAGAGGTGTAAAAAGATCATGAAACAATTTATCGATGAAAGACCTCAGGACTGGTTCGAGGACATCGGCGAGTAA
modifications: CD4 gene
- drug sensitivity against 5-FC (Example 6-3, spRRVe-P1-CDs/sRRVgp-P1-TK, p1-p4): weak drug sensitivity

B3: CD6: yeast CD gene optimized by human codon (SEQ. ID. NO: 21) (nucleic acid)
DNA: ATGGTTACTGGAGGGATGGCCAGTAAATGGGACCAGAAGGGTATGGATATTGCATACGAGGAGGCCGCTTTGGGATACAAGGAGGGGGGTGTCCCTATAGGCGGTTGCCTGATCAATAATAAAGACGGCTCTGTCTTGGGAAGAGGACACAATATGCGCTTTCAGAAGGGAAGCGCCACCCTGCATGGAGAGATCTCTACCCTCGAAAATTGCGGAAGGCTCGAAGGCAAAGTTTACAAAGATACCACCCTCTACACAACGCTGTCCCCCTGTGATATGTGCACCGGTGCCATTATCATGTATGGCATCCCACGCTGCGTTGTAGGAGAGAATGTAAACTTCAAATCCAAGGGAGAGAAGTATCTCCAGACCCGAGGGCACGAAGTTGTGGTGGTGGACGATGAAAGGTGTAAGAAGATCATGAAGCAGTTCATAGATGAGCGGCCTCAGGACTGGTTCGAGGATATTGGCGAATGA
modifications: CD6 gene
- drug sensitivity against 5-FC [1]: excellent drug sensitivity, compared to yCD gene
- drug sensitivity against GCV and 5-FC (Example 10-3, spRRVe-P2-CDs (CD6, CD10-CD16)/sRRVgp-P2-TK, p1 to p5, treated 6 or 8 days): most excellent drug sensitivity

B4: CD7: yeast CD gene optimized by human codon (SEQ. ID. NO: 22) (nucleic acid)
DNA: ATGGTAACTGGTGGCATGGCCTCAAAGTGGGATCAGAAAGGAATGGACATCGCTTACGAGGAGGCCGCACTGGGCTATAAGGAGGGCGGCGTCCCTATAGGCGGTTGCCTGATTAACAATAAAGACGGCTCAGTGCTGGGAAGGGGGCACAACATGAGATTTCAGAAAGGCAGCGCAACTCTGCACGGCGAAATCTCCACTCTGGAGAACTGCGGGCGGCTGGAGGGAAAGGTTTATAAAGATACTACCTTGTATACAACTCTGTCCCCCTGCGATATGTGCACCGGCGCCATCATAATGTACGGAATACCCAGGTGCGTGGTGGGAGAGAACGTGAATTTTAAGTCAAAAGGTGAGAAGTACCTGCAGACTCGCGGCCATGAGGTGGTTGTTGTTGACGATGAAAGGTGCAAGAAGATTATGAAGCAGTTCATTGATGAAAGACCCCAGGACTGGTTTGAGGATATCGGAGAGTAG
modifications: CD7 gene
- drug sensitivity against 5-FC [1]: excellent drug sensitivity, compared to yCD gene

B5: CD8: yeast CD gene optimized by human codon (SEQ. ID. NO: 23) (nucleic acid)
DNA: ATGGTTACTGGGGGAATGGCATCTAAGTGGGATCAGAAAGGTATGGACATCGCTTATGAAGAGGCTGCTCTCGGCTACAAAGAGGGTGGAGTGCCTATCGGAGGGTGCCTGATCAACAACAAGGACGGCAGTGTGCTGGGGAGGGGCCACAATATGAGGTTCCAAAAAGGCTCCGCCACTCTCCACGGGGAAATTAGTACCCTCGAGAATTGCGGACGATTGGAAGGGAAGGTGTACAAGGATACAACACTGTACACCACCCTGTCACCCTGTGATATGTGCACAGGCGCCATTATCATGTACGGAATCCCTAGATGTGTCGTGGGGGAGAATGTAAACTTCAAAAGTAAGGGGGAGAAATATCTCCAGACCCGGGGGCACGAAGTCGTCGTTGTGGACGATGAACGGTGTAAGAAGATCATGAAGCAGTTTATCGATGAGAGGCCCCAGGACTGGTTCGAAGACATCGGGGAATAA
modifications: CD8 gene
- drug sensitivity against 5-FC [1]: excellent drug sensitivity, compared to yCD gene
